Results on 1 molecule are retold here after patent US20050158799A1 (published 2005).

The assay deals with T1, TLR3-YFP (Toll-Like Receptor 3 fused to yellow fluorescent polypeptide), stably expressed in HELA cells (UniProt O15455 24-904).
T1 construct: Immunoprecipitated from whole cell lysates with anti-GFP antibody; not shown: yellow fluorescent polypeptide (YFP)
T1 sequence (looked up): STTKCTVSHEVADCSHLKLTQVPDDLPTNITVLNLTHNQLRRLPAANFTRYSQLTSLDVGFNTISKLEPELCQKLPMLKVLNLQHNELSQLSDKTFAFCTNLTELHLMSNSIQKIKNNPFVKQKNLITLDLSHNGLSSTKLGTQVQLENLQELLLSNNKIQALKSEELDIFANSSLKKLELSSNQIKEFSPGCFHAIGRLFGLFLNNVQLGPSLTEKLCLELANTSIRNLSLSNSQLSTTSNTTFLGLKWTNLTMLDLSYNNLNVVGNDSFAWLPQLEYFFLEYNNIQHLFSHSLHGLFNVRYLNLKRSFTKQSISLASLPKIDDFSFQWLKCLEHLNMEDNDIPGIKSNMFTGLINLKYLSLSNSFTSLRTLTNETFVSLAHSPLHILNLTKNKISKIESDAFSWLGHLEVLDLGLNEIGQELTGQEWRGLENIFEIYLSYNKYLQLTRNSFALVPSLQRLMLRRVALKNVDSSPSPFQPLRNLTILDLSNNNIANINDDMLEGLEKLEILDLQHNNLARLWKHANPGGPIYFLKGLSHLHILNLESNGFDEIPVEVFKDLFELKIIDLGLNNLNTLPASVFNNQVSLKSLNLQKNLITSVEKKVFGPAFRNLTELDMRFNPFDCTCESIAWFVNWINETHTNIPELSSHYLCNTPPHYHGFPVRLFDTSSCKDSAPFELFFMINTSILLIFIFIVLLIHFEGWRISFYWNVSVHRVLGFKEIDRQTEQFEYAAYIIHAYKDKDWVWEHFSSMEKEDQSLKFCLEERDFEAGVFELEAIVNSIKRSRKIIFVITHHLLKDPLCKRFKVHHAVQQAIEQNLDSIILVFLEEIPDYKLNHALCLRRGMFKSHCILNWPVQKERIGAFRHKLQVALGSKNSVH
In words: co-immunoprecipitation from TLR3-YFP HELA cell lysates with anti-GFP, blot for Flag. As to the method:
293T cells or TLR-expressing cells (10 cm plates) were transfected using GeneJuice (Novagen) with 4 μg of the indicated plasmids. One to two days after transfection, the cells were lysed in 1 ml of lysis buffer (20 mM Tris-HCl, 2 mM EDTA, 137 mM NaCl, 0.5% Triton X-100, 10% glycerol with protease inhibitors). Polyclonal anti-GFP (Molecular Probes), anti-IRF-3 or anti-CBP antibodies were incubated overnight with the cell lysates in […]. The immune complexes were precipitated and subjected to 4-15% SDS-PAGE and immunoblotted for FLAG- or CFP/YFP-tagged adapters using the anti-Flag mAb M2 (Sigma), or anti-GFP mAb (Clontech), which also recognizes the spectral variants of GFP.
Co-immunoprecipitation studies were performed to determine if TRAM interacts with TLR4. Stable TLR4^YFP- or TLR3^YFP-expressing HELA cells were transiently transfected with 4 μg of plasmid encoding Flag-Mal, Flag-TRAM or Flag TRAM-C117H. Forty-eight hours after transfection, whole cell lysates were immunoprecipitated with anti-GFP antibody and immunoprecipitated complexes immunoblotted for Flag-tagged adapters and co-immunoprecipitation experiments performed.

B1: Flag-tagged Mal (MyD88 adaptor-like; TIRAP) (other, UniProt P58753-2 1-235, looked up)
chain: MASSTSLPAPGSRPKKPLGKMADWFRQTLLKKPKKRPNSPESTSSDASQPTSQDSPLPPSLSSVTSPSLPPTHASDSGSSRWSKDYDVCVCHSEEDLVAAQDLVSYLEGSTASLRCFLQLRDATPGGAIVSELCQALSSSHCRVLLITPGFLQDPWCKYQMLQALTEAPGAEGCTIPLLSGLSRAAYPPELRFMYYVDGRGPDGGFRQVKEAVMRCKLLQEGEGERDSATVSDLL
notes: pEF-Bos-Flag Mal as described in Fitzgerald et al; also called Flag-Mal; pEF-Bos-Flag Mal; not shown: Flag tag
With B1, the binding result is “no binding”.
